Assay results reported in US20260108588A1, “A COMPLEX COMPRISING A ALPHA-LACTALBUMIN AND A FATTY ACID OR LIPID FOR USE IN THE TREATMENT OR PREVENTION OF CANCER” (LINNANE PHARMA AB, priority 2022, published 2026).

B1: HAMLET: tumoricidal unfolded protein-lipid complex of partially unfolded human α-lactalbumin and oleic acid (protein, UniProt P00709 20-142, looked up)
Alpha-lactalbumin: KQFTKCELSQLLKDIDGYGGIALPELICTMFHTSGYDTQAIVENNESTEYGLFQISNKLWCKSSQVPQSRNICDISCDKFLDDDITDDIMCAKKILDIKGIDYWLAHKALCTEKLEQWLCEKL
modifications: complexed with oleic acid

Assays:
DLD1 cells = experiment: Cell death assays (Prestoblue and ATPlite); assay type: cell-based, human; conditions: 7, 21 and 35 μM each, FIG. 12g-i
Method: Two assays were used as an indirect measure of cell death. Luminescence-based ATPlite™ kit (Perkin Elmer) as well as the Prestoblue assay (ThermoFisher Scientific). Cells (5×10^4 cells/well) were seeded in serum-free RPMI-1640 on 96-well plates and treated with BAMLET and alpha1-oleate at different concentration (7, 21, and 35 μM) and incubated for one hour. Afterward, FCS was added at concentration of 5% and the cells were continuously incubated for two hours at 37° C., at the end of which the two kits were used according to manufactures' instructions. Luminescence and fluorescence were measured using a microplate reader (Infinite F200, Tecan). The experiments were performed in triplicate and repeated twice.

bladder cancer [1] = conditions: patients; cited from earlier work
skin papillomas = conditions: topical application; cited from earlier work
tumor cells = conditions: cited from earlier work
bladder cancer [2] = conditions: local instillations; cited from earlier work

Molecule | tumoricidal effect, BAMLET compared with alpha1-oleate (DLD1 cells) | therapeutic efficacy in bladder cancer (bladder cancer [1]) | effect on skin papillomas (skin papillomas) | tumor cell killing in vitro (tumor cells) | tumor size in bladder cancer (bladder cancer [2])
alpha1-oleate: HAMLET family member formed by the N-terminal alpha-helical peptide (aa 1-39) of alpha-lactalbumin and oleate [reference compound] | similar | has shown therapeutic efficacy | – | – | –
B1 | – | – | removed or reduced skin papillomas | kills many types of tumor cells | caused a reduction in tumor size
